Substitutions are numbered along the chain they refer to. Names may count otherwise.
B1: CP09B03/CP08D02 (antibody, IgG4, V domains shown)
VH: EVQLLESGGGLVQPGGSLRLSCAASGFTFNAHAISWVRQAPGKGLEWVATISSGGTYTYYPDSVKGRFTISRDNSKNTLYLQMNSLKAEDTAMYYCARHDFDYDAAWFAYWGQGTLVTVSS
VL: EIVLTQSPATLSLSPGERATLSCRANSAVSYMYWYQQKPGQAPRPWIYLTSNRATGVPARFSGSGSGTDYTLTISSLEPEDFAVYYCQQWTSFPPTFGQGTKLEIK
notes: IgG4 (S241P), kappa
B2: CP09B03/CP08E01 (antibody, IgG4, V domains shown)
VH: B1 VH
VL: B1 VL with S92T
notes: IgG4 (S241P), kappa
B3: CP09B03/CP08F05 (antibody, IgG4, V domains shown)
VH: B1 VH
VL: B1 VL with F93N
notes: IgG4 (S241P), kappa
B4: CP08A03/Vκ8 S29A (antibody, IgG4, V domains shown)
VH: B1 VH with T28I, A31N
VL: B1 VL with T91S, F93N
notes: IgG4 (S241P), kappa
B5: CP08A06/Vκ8 S29A (antibody, IgG4, V domains shown)
VH: B1 VH with F27Y, T28S, N30S, A31S, A33G, I34M
VL: B1 VL with T91S, F93N
notes: IgG4 (S241P), kappa
B6: CP08A08/Vκ8 S29A (antibody, IgG4, V domains shown)
VH: B1 VH with T28I, N30T, A31N, A33G, I34M
VL: B1 VL with T91S, F93N
notes: IgG4 (S241P), kappa
B7: CP08B01/Vκ8 S29A (antibody, IgG4, V domains shown)
VH: B1 VH with N30S, I34M
VL: B1 VL with T91S, F93N
notes: IgG4 (S241P), kappa
B8: CP08B03/Vκ8 S29A (antibody, IgG4, V domains shown)
VH: B1 VH with N30T
VL: B1 VL with T91S, F93N
notes: IgG4 (S241P), kappa
B9: CP08B04/Vκ8 S29A (antibody, IgG4, V domains shown)
VH: B1 VH with T28I, N30S, A31S, A33G, I34M, D104F, A105P, Y110L
VL: B1 VL with T91S, F93N
notes: IgG4 (S241P), kappa
B10: CP08B06/Vκ8 S29A (antibody, IgG4, V domains shown)
VH: B1 VH with T28S, A31S
VL: B1 VL with T91S, F93N
notes: IgG4 (S241P), kappa
B11: CP08B11/Vκ8 S29A (antibody, IgG4, V domains shown)
VH: B1 VH with N30T, A31N, A33G, I34M
VL: B1 VL with T91S, F93N
notes: IgG4 (S241P), kappa
B12: CP08C01/Vκ8 S29A (antibody, IgG4, V domains shown)
VH: B1 VH with F27Y, T28S, N30S, A31N, A33G, I34M
VL: B1 VL with T91S, F93N
notes: IgG4 (S241P), kappa
B13: CP08C04/Vκ8 S29A (antibody, IgG4, V domains shown)
VH: B1 VH with N30S, A31S, A33G, I34M
VL: B1 VL with T91S, F93N
notes: IgG4 (S241P), kappa
B14: CP08D01/Vκ8 S29A (antibody, IgG4, V domains shown)
VH: B1 VH with A33G, I34M
VL: B1 VL with T91S, F93N
notes: IgG4 (S241P), kappa
B15: CP08D11/Vκ8 S29A (antibody, IgG4, V domains shown)
VH: B1 VH with F27Y, T28S, N30S, A33G, I34M
VL: B1 VL with T91S, F93N
notes: IgG4 (S241P), kappa
B16: CP08F07/Vκ8 S29A (antibody, IgG4, V domains shown)
VH: B1 VH with N30T, A31D
VL: B1 VL with T91S, F93N
notes: IgG4 (S241P), kappa
B17: CP08G10/Vκ8 S29A (antibody, IgG4, V domains shown)
VH: B1 VH with T28I, N30S, A31S, A33G, I34M, D104F, A105P, Y110F
VL: B1 VL with T91S, F93N
notes: IgG4 (S241P), kappa
B18: CP08H01/Vκ8 S29A (antibody, IgG4, V domains shown)
VH: B1 VH with T28I, N30S, A31S, A33G, I34M, R98K, D100P, F101P, D104F
VL: B1 VL with T91S, F93N
notes: IgG4 (S241P), kappa
B19: CP09A04/Vκ8 S29A (antibody, IgG4, V domains shown)
VH: B1 VH with T28S, I34M
VL: B1 VL with T91S, F93N
notes: IgG4 (S241P), kappa
B20: CP09B02/Vκ8 S29A (antibody, IgG4, V domains shown)
VH: B1 VH with N30T, A31S
VL: B1 VL with T91S, F93N
notes: IgG4 (S241P), kappa
B21: CP09D03/Vκ8 S29A (antibody, IgG4, V domains shown)
VH: B1 VH with N30S, A31S
VL: B1 VL with T91S, F93N
notes: IgG4 (S241P), kappa
B22: CP09E03/Vκ8 S29A (antibody, IgG4, V domains shown)
VH: B1 VH with N30S
VL: B1 VL with T91S, F93N
notes: IgG4 (S241P), kappa
B23: CP09F03/Vκ8 S29A (antibody, IgG4, V domains shown)
VH: B1 VH with A31N, A33G, I34M
VL: B1 VL with T91S, F93N
notes: IgG4 (S241P), kappa
B24: CP09G03/Vκ8 S29A (antibody, IgG4, V domains shown)
VH: B1 VH with I34M
VL: B1 VL with T91S, F93N
notes: IgG4 (S241P), kappa
B25: VH1/CP08G01 (antibody, IgG4, V domains shown)
VH: B1 VH with T28I, N30S, A31S, A33G, I34M
VL: B1 VL with W90N, S92N, F93L, P95F
notes: IgG4 (S241P), kappa
B26: VH1/CP08G02 (antibody, IgG4, V domains shown)
VH: B1 VH with T28I, N30S, A31S, A33G, I34M
VL: B1 VL with S92N, F93N
notes: IgG4 (S241P), kappa
B27: VH1/CP09F05 (antibody, IgG4, V domains shown)
VH: B1 VH with T28I, N30S, A31S, A33G, I34M
VL: B1 VL with W90N, S92A, F93L, P95F
notes: IgG4 (S241P), kappa

The binders below were run against T1, His-tagged CEACAM1 (human, UniProt P13688 35-428) (assay: SPR single-cycle, supernatant IgG captured).
T1 construct: 45 kDa SPR analyte; also called CEACAM1-HIS; CEACAM1 analyte
T1 sequence: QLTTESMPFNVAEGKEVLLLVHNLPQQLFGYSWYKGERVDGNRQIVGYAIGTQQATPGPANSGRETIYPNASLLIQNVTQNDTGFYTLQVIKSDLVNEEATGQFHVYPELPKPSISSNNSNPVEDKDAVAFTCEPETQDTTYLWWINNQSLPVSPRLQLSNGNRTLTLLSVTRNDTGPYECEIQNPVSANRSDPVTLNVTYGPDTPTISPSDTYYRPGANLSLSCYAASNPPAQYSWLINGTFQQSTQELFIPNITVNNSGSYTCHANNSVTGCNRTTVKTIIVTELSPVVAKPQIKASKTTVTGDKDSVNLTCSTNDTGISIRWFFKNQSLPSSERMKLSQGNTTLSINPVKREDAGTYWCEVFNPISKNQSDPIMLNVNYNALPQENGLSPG
Method in brief: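 His-tagged CEACAM1 served as analyte over Protein A-captured IgG in single-cycle surface plasmon resonance on a Biacore T200, performed at 25° C in HBS-P+ (pH 7.4). The IgG was taken from supernatants of transiently PEI-transfected HEK EBNA cells grown in 6-well plates and harvested 5-7 days later. Relative KD, alongside fitted Kon, koff and Kd, was referenced to the parent antibody run in the same experiment.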
A Kd of 290 nM, a koff of 0.059 s⁻¹ and a kon of 210000 M⁻¹ s⁻¹ were found for B1 in this work. For the same binder, the “relative KD to parent” value was 1.9.
A Kd of 250 nM, a koff of 0.046 s⁻¹ and a kon of 180000 M⁻¹ s⁻¹ were found for B2 in this work. For the same binder, the “relative KD to parent” value was 2.2.
A Kd of 150 nM, a koff of 0.017 s⁻¹ and a kon of 110000 M⁻¹ s⁻¹ were found for B3 in this work. The “relative KD to parent” value was 3.6.

Molecular target: T1, His-tagged CEACAM1
Assay: SPR single-cycle, supernatant IgG captured
Remark: another data set of the same source
Protocol: In order to assess the binding of the humanized, affinity matured reformatted lead IgGs, single-cycle kinetics analysis was performed on crude supernatants using a Biacore T200 running Biacore T200 Control Software V2.0.1 and Biacore T200 Evaluation Software V3.0. Antibodies were diluted in HBS-P+ to a final concentration of 0.5 μg/ml. At the start of each cycle, antibodies were loaded onto Fc2, Fc3 and Fc4 of the Protein A chip. IgGs were captured at a flow rate of 10 μl/min to give an immobilisation level (RL) of ˜100 RU (a level calculated to obtain a Rₘₐₓ of ˜50-150 RU once the analyte is bound). The surface was then allowed to stabilize. Single-cycle kinetics data was obtained with CEACAM1 as the analyte at a flow rate of 80 μl/min to minimize any potential mass transfer effects. Multiple repeats with the parent (VH1/Vκ8 S29A) antibody were performed to check the stability of the surface and analyte over the kinetic cycles. The signal from the reference channel Fc1 (no antibody) was subtracted from that of Fc2, Fc3 and Fc4 to correct for differences in non-specific binding to the reference surface. A three point, two-fold dilution range from 70 nM to 280 nM CEACAM1 without regeneration between each concentration was used. The signal from each antibody blank run (no CEACAM1) was subtracted to correct for differences in surface stability. The association phase for the three injections of increasing concentrations of CEACAM1 was monitored for 80 seconds each time and a single dissociation phase was measured for 150 seconds following the last injection of CEACAM1. Regeneration of the Protein A surface was conducted using two injections of 10 mM glycine-HCL pH 1.5 followed by a stabilization period of 250 seconds.
A Kd of 430 nM, a koff of 0.039 s⁻¹ and a kon of 93000 M⁻¹ s⁻¹ were found for B4 in this work. For the same binder, the “relative KD to parent” value was 1.3.
A Kd of 440 nM, a koff of 0.075 s⁻¹ and a kon of 170000 M⁻¹ s⁻¹ were found for B5 in this work. For the same binder, the “relative KD to parent” value was 1.3.
A Kd of 1300 nM, a koff of 0.073 s⁻¹ and a kon of 57000 M⁻¹ s⁻¹ were found for B6 in this work. The “relative KD to parent” value was 0.4.
A Kd of 610 nM, a koff of 0.044 s⁻¹ and a kon of 72000 M⁻¹ s⁻¹ were found for B7 in this work. For the same binder, the “relative KD to parent” value was 0.9.
A Kd of 360 nM, a koff of 0.069 s⁻¹ and a kon of 200000 M⁻¹ s⁻¹ were found for B8 in this work. The “relative KD to parent” value was 1.6.
A Kd of 410 nM, a koff of 0.049 s⁻¹ and a kon of 120000 M⁻¹ s⁻¹ were found for B9 in this work. For the same binder, the “relative KD to parent” value was 1.4.
A Kd of 420 nM, a koff of 0.044 s⁻¹ and a kon of 110000 M⁻¹ s⁻¹ were found for B10 in this work. The “relative KD to parent” value was 1.3.
A Kd of 610 nM, a koff of 0.059 s⁻¹ and a kon of 96000 M⁻¹ s⁻¹ were found for B11 in this work. The “relative KD to parent” value was 0.9.
A Kd of 1200 nM, a koff of 0.1 s⁻¹ and a kon of 82000 M⁻¹ s⁻¹ were found for B12 in this work. For the same binder, the “relative KD to parent” value was 0.5.
A Kd of 1200 nM, a koff of 0.26 s⁻¹ and a kon of 220000 M⁻¹ s⁻¹ were found for B13 in this work. The “relative KD to parent” value was 0.5.
A Kd of 300 nM, a koff of 0.043 s⁻¹ and a kon of 140000 M⁻¹ s⁻¹ were found for B14 in this work. For the same binder, the “relative KD to parent” value was 1.9.
A Kd of 2000 nM, a koff of 0.17 s⁻¹ and a kon of 86000 M⁻¹ s⁻¹ were found for B15 in this work. For the same binder, the “relative KD to parent” value was 0.3.
A Kd of 470 nM, a koff of 0.081 s⁻¹ and a kon of 170000 M⁻¹ s⁻¹ were found for B16 in this work. The “relative KD to parent” value was 1.2.
A Kd of 630 nM, a koff of 0.055 s⁻¹ and a kon of 87000 M⁻¹ s⁻¹ were found for B17 in this work. The “relative KD to parent” value was 0.9.
A Kd of 420 nM, a koff of 0.087 s⁻¹ and a kon of 210000 M⁻¹ s⁻¹ were found for B18 in this work. For the same binder, the “relative KD to parent” value was 1.3.
A Kd of 400 nM, a koff of 0.036 s⁻¹ and a kon of 90000 M⁻¹ s⁻¹ were found for B19 in this work. For the same binder, the “relative KD to parent” value was 1.4.
A Kd of 340 nM, a koff of 0.04 s⁻¹ and a kon of 120000 M⁻¹ s⁻¹ were found for B20 in this work. The “relative KD to parent” value was 1.6.
A Kd of 310 nM, a koff of 0.033 s⁻¹ and a kon of 110000 M⁻¹ s⁻¹ were found for B21 in this work. The “relative KD to parent” value was 1.8.
A Kd of 400 nM, a koff of 0.037 s⁻¹ and a kon of 110000 M⁻¹ s⁻¹ were found for B22 in this work. For the same binder, the “relative KD to parent” value was 1.6.
A Kd of 1000 nM, a koff of 0.076 s⁻¹ and a kon of 74000 M⁻¹ s⁻¹ were found for B23 in this work. The “relative KD to parent” value was 0.5.
A Kd of 350 nM, a koff of 0.038 s⁻¹ and a kon of 110000 M⁻¹ s⁻¹ were found for B24 in this work. The “relative KD to parent” value was 1.5.
A Kd of 400 nM, a koff of 0.047 s⁻¹ and a kon of 120000 M⁻¹ s⁻¹ were found for B25 in this work. The “relative KD to parent” value was 1.5.
A Kd of 2300 nM, a koff of 0.052 s⁻¹ and a kon of 23000 M⁻¹ s⁻¹ were found for B26 in this work. For the same binder, the “relative KD to parent” value was 0.3.
A Kd of 1600 nM, a koff of 0.055 s⁻¹ and a kon of 35000 M⁻¹ s⁻¹ were found for B27 in this work. For the same binder, the “relative KD to parent” value was 0.4.

Reference: patent US20250074980A1 (BRIGHAM AND WOMEN S HOSPITAL, published 2025)
